{"source": "paper PMC5519134", "target": "FZD2-CRD-Fc, recombinant human Frizzled 2 cysteine-rich domain, Fc-tagged (human)", "assay": "BLI", "data": [{"substance": "TcdB_(1-1830), truncated TcdB lacking the CROPs region (from UniProt P18177 1-1830) (domain or fragment)", "values": [{"measurement": "Kd", "value": 0.017, "unit": "µM"}]}]}
